Assay results from article PMC11049809, “Determinants of mer Promoter Activity from Pseudomonas aeruginosa”.

T1: MerR (Tn501) (Pseudomonas aeruginosa (Tn501), UniProt P0A183 1-144)
T1 sequence: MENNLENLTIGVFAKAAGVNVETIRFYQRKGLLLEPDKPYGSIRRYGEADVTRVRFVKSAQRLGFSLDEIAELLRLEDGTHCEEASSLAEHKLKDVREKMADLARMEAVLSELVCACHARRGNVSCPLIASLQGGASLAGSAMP


Target: T1, MerR (Tn501)
Assay: EMSA; 0-600 nM MerR, 30 nM DNA, no Hg stated; 10 mM Tris-HCl pH 8.0, 50 mM KCl, 5 mM MgCl2, 10% glycerol, 25 C 10 min; 8% native PAGE, 80 V 45 min
Conditions: protein: recombinant; chain copies: 2; blunt

Binder | binding result
Pmer-M14 (dsDNA) DNA 1: TTGACTCCGTACATGAGTACGGTAAGGT DNA 2: ACCTTACCGTACTCATGTACGGAGTCAA | binds
Pmer-M4 (dsDNA) DNA 1: TTGACTCCGTACTGAGTACGGAAGTAAGGT DNA 2: ACCTTACTTCCGTACTCAGTACGGAGTCAA | no binding
Pmer-M12 (dsDNA) DNA 1: TTGACTCCGTACATGAGTACGGGTAAGGT DNA 2: ACCTTACCCGTACTCATGTACGGAGTCAA | binds
Pmer-M1 (dsDNA) DNA 1: TTGACTCGTACATGAGTACGGAAGTAAGGT DNA 2: ACCTTACTTCCGTACTCATGTACGAGTCAA | binds
Pmer-M11 (dsDNA) DNA 1: TTGACTCCGTACATGAGTACGGAATAAGGT DNA 2: ACCTTATTCCGTACTCATGTACGGAGTCAA | binds
Pmer-M10 (dsDNA) DNA 1: TTGACTCCGTACATGAGTACGGAGTAAGGT DNA 2: ACCTTACTCCGTACTCATGTACGGAGTCAA | binds
Pmer-M7 (dsDNA) DNA 1: TTGACTCCGTACATGAGACGGAAGTAAGGT DNA 2: ACCTTACTTCCGTCTCATGTACGGAGTCAA | no binding
